In patent publication US20090042785A1:

Assays:
[1] = target: human CTLA-4-Fc (Chimerigen) (human) (UniProt P16410); assay: FACS competition: inhibition of 2.5 nM hCTLA-4 Fc binding to Raji cells (B7.1, B7.2)
[2] = target: human CTLA-4-Fc (Chimerigen) (human) (UniProt P16410); assay: competition FACS: HuCTLA4-Ig 5 ug/ml (as printed on the axis) pre-incubated with the antagonist, then staining of P815 cells transfected with human B7.2; blocked ligand B7.2
[3] = target: human CTLA-4 on the cell surface (transfected CHO and A431 cells; CD152-expressing cells of human tonsil) (human) (UniProt P16410); assay: indirect immunoperoxidase staining of cryosections; spleen HT337, mononuclear cells, white pulp (membrane, frequent); 5 µg/mL [Fig.20 continued, no label on the sheet]
[4] = target: human CTLA-4 on the cell surface (transfected CHO and A431 cells; CD152-expressing cells of human tonsil) (human) (UniProt P16410); assay: indirect immunoperoxidase staining of cryosections; kidney HT268, mononuclear cells, interstitial, inflammatory (membrane, rare); 5 µg/mL [Fig.20 continued, no label on the sheet]
[5] = target: human CTLA-4-Fc (Chimerigen) (human) (UniProt P16410); assay: competition FACS: 2.5 nM human CTLA-4 Fc pre-incubated with the antagonist, then staining of Raji cells; % inhibition of CTLA-4 Fc binding; blocked ligands B7.1 and B7.2
[6] = target: human CTLA-4 on the cell surface (transfected CHO and A431 cells; CD152-expressing cells of human tonsil) (human) (UniProt P16410); assay: indirect immunoperoxidase staining of cryosections; CD152-expressing cells in human tonsil (positive control tissue), source HT662; 5 µg/mL; scale ± to 4+ (4+ = intense)
[7] = target: human CTLA-4 on the cell surface (transfected CHO and A431 cells; CD152-expressing cells of human tonsil) (human) (UniProt P16410); assay: indirect immunoperoxidase staining of cryosections; CD152-expressing cells in human tonsil (positive control tissue), source HT343; 5 µg/mL; scale ± to 4+ (4+ = intense)
[8] = target: human CTLA-4 on the cell surface (transfected CHO and A431 cells; CD152-expressing cells of human tonsil) (human) (UniProt P16410); assay: indirect immunoperoxidase staining of cryosections; tonsil HT664, mononuclear cells, follicular>>interfollicular (membrane); 5 µg/mL [Fig.20 continued, no label on the sheet]
[9] = target: mouse CTLA-4 Fc (Chimerigen) (mouse) (UniProt P09793); assay: FACS competition: inhibition of 2.5 nM mCTLA-4 Fc binding to Raji cells (B7.1, B7.2)

Row | IC50 [1] [nM] | IC50 (read off the curve) [2] [nM] | staining intensity grade [3] | staining intensity grade [4] | IC50 (read off the curve) [5] [nM] | staining intensity grade [6] | staining intensity grade [7] | staining intensity grade [8] | IC50 [9] [nM] | Substance
1 | 1.9 | 50 |  |  |  |  |  |  |  | anti-human CTLA-4 monoclonal antibody 14D3 (eBioscience)
2 | 2.1 |  | 4 + | 4 + | 2 | 4 + | 4 + | 4 + |  | anti-human CTLA-4 monoclonal antibody BNI3 (Becton Dickinson)
3 |  |  |  |  |  |  |  |  | 4.1 | anti-mouse CTLA-4 monoclonal antibody 4F10 (hybridoma UC10-4F10-11, ATCC #HB-304)
